Values quoted from earlier work as cited in patent US20120064039A1, “Use of Guanylyl Cyclase C Agonists to Suppress Appetite” (priority 2009, published 2012).

Target: ST receptors (guanylate cyclase) (Homo sapiens, UniProt P25092)
Settings: relative to native ST; about

Sequence of ST receptors (guanylate cyclase) (P25092 24-1073): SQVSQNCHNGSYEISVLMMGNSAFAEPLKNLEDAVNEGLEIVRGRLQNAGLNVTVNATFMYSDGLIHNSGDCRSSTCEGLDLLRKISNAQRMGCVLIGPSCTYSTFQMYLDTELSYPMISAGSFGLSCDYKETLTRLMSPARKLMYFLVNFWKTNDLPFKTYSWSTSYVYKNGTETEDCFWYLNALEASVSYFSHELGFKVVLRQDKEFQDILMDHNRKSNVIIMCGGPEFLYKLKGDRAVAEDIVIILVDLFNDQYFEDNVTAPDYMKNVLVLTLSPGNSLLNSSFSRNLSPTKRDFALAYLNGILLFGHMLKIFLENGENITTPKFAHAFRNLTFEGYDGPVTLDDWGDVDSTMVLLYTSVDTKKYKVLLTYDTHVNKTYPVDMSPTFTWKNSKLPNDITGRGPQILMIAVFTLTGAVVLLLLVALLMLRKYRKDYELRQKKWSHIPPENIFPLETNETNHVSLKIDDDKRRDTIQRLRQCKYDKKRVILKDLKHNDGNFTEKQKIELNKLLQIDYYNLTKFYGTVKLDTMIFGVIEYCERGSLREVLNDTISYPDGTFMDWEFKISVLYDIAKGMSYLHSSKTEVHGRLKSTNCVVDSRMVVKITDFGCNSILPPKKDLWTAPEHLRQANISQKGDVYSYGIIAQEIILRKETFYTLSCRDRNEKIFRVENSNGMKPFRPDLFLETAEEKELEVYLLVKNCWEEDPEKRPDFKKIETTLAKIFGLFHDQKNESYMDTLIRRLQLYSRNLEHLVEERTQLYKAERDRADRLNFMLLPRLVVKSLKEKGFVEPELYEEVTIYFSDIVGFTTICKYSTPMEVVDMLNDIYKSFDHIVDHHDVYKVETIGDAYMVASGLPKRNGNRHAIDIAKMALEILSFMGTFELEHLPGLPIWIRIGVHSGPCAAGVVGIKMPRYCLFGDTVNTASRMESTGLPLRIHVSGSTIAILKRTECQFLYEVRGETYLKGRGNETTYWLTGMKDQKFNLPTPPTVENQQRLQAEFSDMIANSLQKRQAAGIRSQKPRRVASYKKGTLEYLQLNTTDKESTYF

For “guanylin (PNTCEICAYAACTGC; listed as Rattus norvegicus) [native GCC ligand]”, the “activates guanylate cyclase at a level less than native ST” value is given as 10- to 100 fold.
